Test results as given in US20260258115A1 (MAPP BIOPHARMACEUTICAL, published 2026).

Each binder was assayed against T1, RSV postfusion F (postF), subtype A (respiratory syncytial virus subtype A, UniProt P03420 26-513) (assay: BLI).
T1 construct: also called Postfusion subtype A; F deltaFP

Binder | binding result
ADI-19499 (antibody, V domains shown, full-length IgG; also called Ab 201) VH: EVQLLESGPGLVKPSETLSLTCTVSGGSISSSSYYWGWIRQPPGKGLEWIGSIYYSGSTYYNPSLKSRVTISVDTSKNQFSLKLSSVTAADTAVYYCAVLLYSSSSFDYWGQGTLVTVSS VL: NFMLTQPHSVSESPGKTVTISCTRSSGSIASNYVQWYQQRPGSSPTTVIYEDNQRPSGVPDRFSGSIDSSSNSASLTISGLKTEDEADYYCQSYDSSNQAVFGGGTQLTVL | no binding
ADI-22758 (antibody, V domains shown, full-length IgG) VH: QVQLVESGGGLVKPGGSLRLSCAASGFSISSYSMNWVRQAPGKGLEWVSSISGSSSYIYYGDSVKGRFTISRDNARNSLYLQMNSLRAEDTAVYYCARGDIAAAGTITYYFAHWGQGTLVTVSS VL: QSVLTQPPSVSGAPGQRVTISCTGSSSNIGAGYDVHWYQQLTGTAPKLLIFGNNNRPSGVPDRFSGSKSGTSASLAITGLQAEDEADYYCQSYDSSLSGAVFGGGTQLTVL | no binding
ADI-22765 (antibody, V domains shown, full-length IgG) VH: EVQLVESGGGLVKPGGSLRLSCAASGFTFSSYSMNWVRQAPGKGLEWVSSISSSSSYIYYADSVKGRFTISRDNAKNSLYLQMNSLRAEDTAVYYCARDRGDGYNYDYWGQGTLVTVSS VL: QPVLTQPPSVSGAPGQRVTISCTGSSSNIGAGYDVHWYQQLPGTAPKLLIYGNSNRPSGVPDRFSGSKSGTSASLAITGLQAEDEADYYCQSYDSSLSVVFGGGTKVTVL | no binding
ADI-19502 (antibody, V domains shown, full-length IgG) VH: EVQLVESGGGVVQPGGSLRLSCAASGFTFSSDGMHWVRQAPGKGLEWVAFIQYDGTNKYYVDSVKGRFTISRDNSKNTLYLQMNSLRAEDTAVYYCAKDQGFRYSSSWYAFDIWGQGTMVTVSS VL: not shown | no binding
ADI-19496 (antibody, V domains shown, full-length IgG; also called Ab 198) VH: EVQLVESGGGVVQPGGSLRLSCAASGFTFSSYGMHWVRQAPGKGLEWVAFIRYDGSNKYYADSVKGRFTISRDNSKSTLYLQMNSLRAEDTAVYYCAKDATFGYSSSWYNFDYWGQGTLVTVSS VL: not shown | no binding
ADI-22776 (antibody, V domains shown, full-length IgG) VH: EVQLLESGGGLVKPGGSLRLSCAASGFTFSDYYMSWIRQAPGKGLEWVSYISSSGSTIYYADSVKGRFTISRDNAKNSLYLQMNSLRAEDTAVYYCAREIGGSYTGGAFDIWGQGTMVTVSS VL: SYELTQPPSVSVAPGQTARITCGGNNIGSKSVHWYQQKPGQAPVLVVYDDSDRPSGIPERFSGSNSGNTATLTISRVEAGDEADYYCQVWDSSSDHVVFGGGTKVTVL | no binding
ADI-19500 (antibody, V domains shown, full-length IgG) VH: EVQLVESGGGLVQPGGSLRLSCAASGFTFSSYSMNWVRQAPGKGLEWVSYISSSSSTIYYADSVKGRFTISRDNAKNSLYLQMNSLRAEDTAVYYCARGNTVTTFLDYWGQGTLVTVSS VL: DIRLTQSPSSFSASTGDRVTITCRASQGISSYLAWYQQKPGKAPKLLIYAASTLQSGVPSRFSGSGSGTDFTLTISCLQSEDFATYYCQQYYSYPPLTFGGGTKVDIK | no binding
ADI-25548 (antibody, V domains shown, full-length IgG) VH: EVQLVESGGGLIQPGGSLRLSCAASGFTVSSNYMSWVRQAPGKGLEWVSVIYSGGSTYYADSVKGRFTISRDNSKNTLYLQMNSLRAEDTAVYYCARGPQFGVSYSSGWYSFDYWGQGTLVTVSS VL: QSVLIQPRSVSGSPGQSVTISCTGTSSDVGGYNYVSWYQQHPGKAPKLMIYDVSKRPSGVPDRFSGSKSGNTASLTISGLQAEDEADYYCCSYAGSYTFVVFGGGTKLTVL | no binding
ADI-22769 (antibody, V domains shown, full-length IgG) VH: QVQLVQSGGGLVQPGGSLRLSCAASGFTFSDHYMDWVRQAPGKGLEWVGRTRNKANSYTTEYAASVKGRFTISRDDSKNSLYLQMNSLKTEDTAVYYCARVGYYYYYGMDVWGQGTTVTVSS VL: not shown | no binding
ADI-25542 (antibody, V domains shown, full-length IgG) VH: not shown VL: QTVVTQEPSFSVSPGGTVTLTCGLSSGSVSTSYYPSWYQQTPGQAPRTLIYSTNTRSSGVPDRFSGSILGNKAALTITGAQADDESDYYCVLYMGSGIWVFGGGTKVTVL | no binding
